Source: paper PMC4525287, “Auxiliary KCNE subunits modulate both homotetrameric Kv2.1 and heterotetrameric Kv2.1/Kv6.4 channels” (Scientific Reports, 2015)

Target: T1, unlabeled Kv2.1 (human, UniProt Q14721 1-858)
T1 sequence (looked up): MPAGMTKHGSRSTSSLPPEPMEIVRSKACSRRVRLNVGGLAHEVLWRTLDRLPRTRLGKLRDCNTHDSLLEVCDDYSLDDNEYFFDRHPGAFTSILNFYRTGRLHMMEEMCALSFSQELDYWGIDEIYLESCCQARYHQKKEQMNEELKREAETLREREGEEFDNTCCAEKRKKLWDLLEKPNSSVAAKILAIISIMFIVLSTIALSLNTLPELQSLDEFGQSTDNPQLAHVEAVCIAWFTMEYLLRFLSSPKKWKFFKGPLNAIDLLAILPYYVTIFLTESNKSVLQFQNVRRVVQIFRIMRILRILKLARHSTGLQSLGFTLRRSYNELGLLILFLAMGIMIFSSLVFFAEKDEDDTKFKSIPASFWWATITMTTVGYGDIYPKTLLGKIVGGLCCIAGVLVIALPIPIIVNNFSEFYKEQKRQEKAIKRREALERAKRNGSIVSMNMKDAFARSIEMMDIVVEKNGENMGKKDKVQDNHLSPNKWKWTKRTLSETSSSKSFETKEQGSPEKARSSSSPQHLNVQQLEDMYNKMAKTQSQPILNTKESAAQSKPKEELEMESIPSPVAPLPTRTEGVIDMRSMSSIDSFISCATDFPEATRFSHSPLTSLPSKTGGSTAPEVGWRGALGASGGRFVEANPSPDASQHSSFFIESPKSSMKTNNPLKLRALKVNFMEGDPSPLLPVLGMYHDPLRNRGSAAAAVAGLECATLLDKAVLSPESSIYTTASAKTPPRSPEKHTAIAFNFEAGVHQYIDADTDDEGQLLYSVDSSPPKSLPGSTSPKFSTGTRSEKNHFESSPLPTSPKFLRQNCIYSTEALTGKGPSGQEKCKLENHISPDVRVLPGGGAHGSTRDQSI
Experiment: cell-based or functional assay

B1: C-terminally YFP-labeled KCNE5 (natural protein, human, UniProt Q9UJ90 1-142, looked up)
chain: MNCSESQRLRTLLSRLLLELHHRGNASGLGAGPRPSMGMGVVPDPFVGREVTSAKGDDAYLYILLIMIFYACLAGGLILAYTRSRKLVEAKDEPSQACAEHEWAPGGALTADAEAAAGSQAEGRRQLASEGLPALAQGAERV
fast component of the activation of Kv2.1/Kv6.4 heterotetramers on co-expression of (untagged) KCNE5 with Kv2.1 and Kv6.4 in HEK293 cells, between +20 mV and +70 mV (whole cell current recordings): ~2 fold
